Data on 7 molecules can be found in patent US20170260534A1 (ANAEROPHARMA SCIENCE, published 2017).

As usually defined, the Kd is a measure of binding affinity in units of concentration. As a reminder, the koff is the rate constant with which the complex falls apart. The kon is the rate constant with which the complex forms.

Experiment [1] addresses T1, Recombinant Human CTLA-4-Fc Chimera (BioLegend) (human, UniProt P16410 36-161, limits assumed).
T1 construct: Bought reagent; also called hCTLA-4; hCTLA-4 immobilized; not shown: human IgG1 Fc
T1 sequence (looked up): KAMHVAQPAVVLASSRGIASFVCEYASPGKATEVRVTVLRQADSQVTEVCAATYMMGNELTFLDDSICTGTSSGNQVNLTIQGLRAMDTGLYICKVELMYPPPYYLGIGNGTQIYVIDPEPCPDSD
The experiment can be described thus: SPR (Biacore), Fc-fused hCTLA-4 captured by anti-human IgG (Fc), scFv as analyte, single cycle kinetics. The protocol: The binding kinetic parameter of each hCTLA-4scFv01-FLAG purified to hCTLA-4 (fusion protein with human IgG1Fc) was measured by surface plasmon resonance using Biacore system (manufactured by GE Healthcare). To a substrate having a carboxyl methyl dextran-coated gold membrane, a mouse anti-human IgG (Fc) monoclonal antibody (manufactured by GE Healthcare) was bound in accordance with amine coupling, and Fc-fused recombinant hCTLA-4 (Biolegend) was captured as a ligand. As an analyte, scFv purified was used. Samples of scFv having a concentration of 0.7404, 2.2222, 6.6667, 20 and 60 nM were prepared and sequentially subjected to binding in order of increasing concentration in accordance with single cycle kinetics. Data obtained were analyzed by BIA evaluation software (manufactured by GE Healthcare).
The binding kinetic parameter to hCTLA-4 (fusion protein with human IgG1Fc) was measured by surface plasmon resonance using Biacore system. Thereafter, analysis was carried out in the same manner as in Example 29.
On the technique in general: SPR reads the build-up and loss of mass on a sensor chip optically.

Experiment [2] addresses T2, human PD-1 overexpressed on HEK293T cells (human, UniProt Q15116 25-288).
T2 construct: whole, on cells; also called hPD-1 expressing cells; human PD-1 overexpressing cell
Description: flow cytometry on HEK293T cells overexpressing hPD-1; anti-hCTLA-4scFv01-FLAG purified from PC4, used as in Example 24 (biotinylated Protein L and Brilliant Violet 421 Streptavidin) [d].

Experiment [3] addresses T1, Recombinant Human CTLA-4-Fc Chimera …. Description: ELISA, antigen-Fc immobilized, scFv at 1 ng/mL. The protocol:
(§1) After the liquid was removed, 1×PBS (350 μL) for each was dispensed and the liquid was removed. This operation was repeated three times for washing. To each of the plates, 1% BSA solution (350 μL) was dispensed at room temperature and incubated for 2 hours for blocking. After the liquid was removed, 1×PBS (350 μL) for each was dispensed and the liquid was removed. This operation was repeated three times for washing.
(§2) To blank wells, the signal enhancing reagent alone was dispensed in an amount of 100 μL. […] After the liquid was removed, 1×PBS (350 μL for each) was dispensed and the liquid was removed. This operation was repeated three times for washing.
(§3) The plates were shielded from light and incubated at room temperature for 20 minutes. […] Absorbance was measured at 450 nm and 570 nm (reference wavelength).
For orientation: In an ELISA, binding on a coated surface is turned into a signal by an enzyme label.

Experiment [4] deals with T3, mPD-1 (Fc Chimera, R&D Systems) (mouse, UniProt Q02242 25-167).
T3 construct: Species read from the label mPD-1 only; also called mPD-1 immobilized; Fc part of the bought chimera not given
T3 sequence (looked up): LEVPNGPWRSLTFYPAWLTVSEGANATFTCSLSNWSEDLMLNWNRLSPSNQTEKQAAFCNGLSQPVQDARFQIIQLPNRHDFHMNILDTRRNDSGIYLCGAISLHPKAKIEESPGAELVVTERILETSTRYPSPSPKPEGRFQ
The experiment can be described thus: ELISA, antigen-Fc immobilized, scFv at 1 ng/mL. As to the method:
as §1, §2, §3

Experiment [5] addresses T1, Recombinant Human CTLA-4-Fc Chimera …. Description: ELISA, antigen-Fc immobilized, scFv at 10 ng/mL. The protocol:
as §1, §2, §3

Experiment [6] has as its target T3, mPD-1 (Fc Chimera, R&D Systems). The experiment can be described thus: ELISA, antigen-Fc immobilized, scFv at 10 ng/mL. The protocol:
as §1, §2, §3

In experiment [7] the target is T1, Recombinant Human CTLA-4-Fc Chimera …. Description: ELISA, antigen-Fc immobilized, scFv at 100 ng/mL. The protocol: as §1, §2, §3
Experiment [8] deals with T3, mPD-1 (Fc Chimera, R&D Systems). Description: ELISA, antigen-Fc immobilized, scFv at 100 ng/mL. As to the method: as §1, §2, §3
In experiment [9] the target is T1, Recombinant Human CTLA-4-Fc Chimera …. Description: ELISA, antigen-Fc immobilized, scFv at 1000 ng/mL. As to the method:
as §1, §2, §3

The target in experiment [10] is T3, mPD-1 (Fc Chimera, R&D Systems). Description: ELISA, antigen-Fc immobilized, scFv at 1000 ng/mL. As to the method:
as §1, §2, §3

Positions count from the first letter of the chain named. Names and notes keep the numbering of the source.

T2 sequence (Q15116 25-288): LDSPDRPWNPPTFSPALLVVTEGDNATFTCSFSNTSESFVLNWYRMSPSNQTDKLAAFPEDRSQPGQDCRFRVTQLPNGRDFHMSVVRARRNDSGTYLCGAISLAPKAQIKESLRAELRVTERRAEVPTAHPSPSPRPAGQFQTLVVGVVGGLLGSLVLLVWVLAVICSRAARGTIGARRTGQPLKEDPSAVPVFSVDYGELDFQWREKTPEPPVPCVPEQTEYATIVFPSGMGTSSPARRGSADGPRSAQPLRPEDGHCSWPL

B1: anti-hCTLA-4scFv01 (not tagged) of single-expression strain C1TLB (scFv)
scFv: ATLTPQVQLVESGGGVVQPGRSLRLSCAASGFTFSSYGMHWVRQAPGKGLEWVAVIWYDGSNKYYADSVKGRFTISRDNSKNTLYLQMNSLRAEDTAVYYCARDPRGATLYYYYYGMDVWGQGTTVTVSSGGGGSGGGGSGGGGSDIQMTQSPSSLSASVGDRVTITCRASQSINSYLDWYQQKPGKAPKLLIYAASSLQSGVPSRFSGSGSGTDFTLTISSLQPEDFATYYCQQYYSTPFTFGPGTKVEIK
notes: Plasmid pC1TLB; PC4TL and PC6TL secrete the same scFv; Signal peptide SP50 left out; also called scFv derived from C1TLB strain; anti-hCTLA-4scFv01 in culture supernatants of PC4TL and PC6TL
Take B1: in [1], the Kd was determined as 1.48 nM, the koff worked out at 0.00098 s⁻¹ and the association rate constant (kon) turned out to be 661000 M⁻¹ s⁻¹.

B2: anti-hCTLA-4scFv01-FLAG purified from single-expression strain C2F (scFv)
scFv: AQVQLVESGGGVVQPGRSLRLSCAASGFTFSSYGMHWVRQAPGKGLEWVAVIWYDGSNKYYADSVKGRFTISRDNSKNTLYLQMNSLRAEDTAVYYCARDPRGATLYYYYYGMDVWGQGTTVTVSSGGGGSGGGGSGGGGSDIQMTQSPSSLSASVGDRVTITCRASQSINSYLDWYQQKPGKAPKLLIYAASSLQSGVPSRFSGSGSGTDFTLTISSLQPEDFATYYCQQYYSTPFTFGPGTKVEIKDYKDDDDK
notes: Plasmid pP30SP67L1-hCTLA-4scFv01-FLAG (pC2F); PC2 and PC7 secrete the same scFv; Signal peptide SP67 left out; also called scFv derived from C2F strain
Take B2: in [1], the Kd is 2.28 nM, the koff came out at 0.00103 s⁻¹ and the kon worked out at 452000 M⁻¹ s⁻¹.

B3: anti-hCTLA-4scFv01-FLAG purified from single-expression strain C3F (scFv)
scFv: B2 scFv with A1D
notes: Plasmid pP30SP68L1-hCTLA-4scFv01-FLAG (pC3F); PC3, PC5 and PC8 secrete the same scFv; also called scFv derived from C3F strain
Take B3: in [1], the Kd was determined as 2.97 nM, the koff came to 0.00103 s⁻¹ and the kon amounted to 347000 M⁻¹ s⁻¹.

B4: anti-hCTLA-4scFv01 (not tagged) of single-expression strain C2TLB (scFv)
scFv: AQVQLVESGGGVVQPGRSLRLSCAASGFTFSSYGMHWVRQAPGKGLEWVAVIWYDGSNKYYADSVKGRFTISRDNSKNTLYLQMNSLRAEDTAVYYCARDPRGATLYYYYYGMDVWGQGTTVTVSSGGGGSGGGGSGGGGSDIQMTQSPSSLSASVGDRVTITCRASQSINSYLDWYQQKPGKAPKLLIYAASSLQSGVPSRFSGSGSGTDFTLTISSLQPEDFATYYCQQYYSTPFTFGPGTKVEIK
notes: Plasmid pC2TLB; PC2TL and PC7TL secrete the same scFv; Signal peptide SP67 left out; also called scFv derived from C2TLB strain; anti-hCTLA-4scFv01 in culture supernatants of PC2TL and PC7TL
As to B4, in experiment [1], the Kd was 0.98 nM, the koff amounted to 0.000961 s⁻¹ and the kon was 981000 M⁻¹ s⁻¹.

B5: anti-hCTLA-4scFv01 (not tagged) of single-expression strain C3TLB (scFv)
scFv: B4 scFv with A1D
notes: Plasmid pC3TLB; PC3TL, PC5TL and PC8TL secrete the same scFv; Signal peptide SP68 left out; also called scFv derived from C3TLB strain; anti-hCTLA-4scFv01 in culture supernatants of PC3TL, PC5TL and PC8TL
In the case of B5, in [1], the Kd is 1.29 nM, the koff was determined as 0.000996 s⁻¹ and the kon was 773000 M⁻¹ s⁻¹.

B6: anti-hCTLA-4scFv01-FLAG purified from single-expression strain C1F or from co-expression strain PC4 (scFv)
scFv: ATLTPQVQLVESGGGVVQPGRSLRLSCAASGFTFSSYGMHWVRQAPGKGLEWVAVIWYDGSNKYYADSVKGRFTISRDNSKNTLYLQMNSLRAEDTAVYYCARDPRGATLYYYYYGMDVWGQGTTVTVSSGGGGSGGGGSGGGGSDIQMTQSPSSLSASVGDRVTITCRASQSINSYLDWYQQKPGKAPKLLIYAASSLQSGVPSRFSGSGSGTDFTLTISSLQPEDFATYYCQQYYSTPFTFGPGTKVEIKDYKDDDDK
notes: Plasmid pP30SP50L5-hCTLA-4scFv01-FLAG (pC1F) and pPC4; PC4 and PC6 secrete the same scFv as C1F; Signal peptide SP50 left out; also called scFv derived from C1F strain; hCTLA-4scFv01-FLAG purified from PC4 strain
As for B6, in experiment [1], the Kd turned out to be 1.08 nM, the koff came out at 0.000996 s⁻¹ and the kon is 918000 M⁻¹ s⁻¹. Also, the binding result in experiment [2] is listed as “no binding (tested: 1 ug/mL)”.

B7: anti-hPD-1scFv03 purified from the culture supernatant of co-expression strain PC1 (scFv)
scFv: DSAQTSAVVSSRSFPKASSVQVQLVESGGGVVQPGRSLRLDCKASGITFSNSGMHWVRQAPGKGLEWVAVIWYDGSKRYYADSVKGRFTISRDNSKNTLFLQMNSLRAEDTAVYYCATNDDYWGQGTLVTVSSGGGGSGGGGSGGGGSEIVLTQSPATLSLSPGERATLSCRASQSVSSYLAWYQQKPGQAPRLLIYDASNRATGIPARFSGSGSGTDFTLTISSLEPEDFAVYYCQQSSNWPRTFGQGTKVEIKHHHHHH
notes: Secreted from the cassette SP7L20-anti-hPD-1scFv03-His tag; also called anti-PD-1scFv03
As for B7, the OD value in experiment [3] was -0.062 OD; in experiment [4], -0.059 OD; in [5], -0.055 OD; in [6] it was -0.057 OD; in experiment [7], -0.018 OD; in experiment [8], -0.049 OD. Further, the results for the OD value in experiment [9] and in [10] were 0.341 OD and 0.107 OD, respectively.
